Data on two molecules can be found in article PMC12658140 (Nature Communications, 2025).

Assay [1] concerns the target H3N2 A/Moscow/10/1999 HA on infected MDCK-SIAT1 cells (Influenza A virus H3N2 A/Moscow/10/1999, UniProt I6SI59, strain). In words: flow cytometry on cells. The settings on record: one partner purified.
Assay [2] has as its target T1, H3N2 A/Hong Kong/1/1968 HA protein (Influenza A virus H3N2 A/Hong …, UniProt Q91MA7, strain).
T1 construct: source: bought: SinoBiological
In words: ELISA. As to conditions: both partners purified.

Assay [3] deals with H14N5 A/mallard/Astrakhan/263/1982 HA protein (Influenza A virus H14N5 …, UniProt P26136, strain). Kind of assay: ELISA. The settings on record: both partners purified. For orientation: An ELISA detects its analyte on a solid surface through an enzyme-linked reagent.

B1: 240-14 IgA 2F02 IgG (antibody, V domains shown)
VH: EVQLLESGGGLVQPGGSLRLSCAASGFTFSTYAMSWVRQAPGKGLEWVSTISGSGGSTYDAESVKGRFTISRDNSKNTLYLQMNSLRAEDTAVYYCAKEGGDFWSGYYANWFDPWGQGTLVTVSS
VL: QSALTQPRSVSGSPGQSVTISCTGTRSDVGGYNYVSWYQQHPGKAPKVIIYDVKKRPSGVPDRFSGSKSGNTASLTISGLQAEDEADYYCSAFAGSHTLFGGGTKVTVL
notes: source: Expi293F, transfected, purified (CaptureSelect CH1-XL beads); copies: 2 + 2
Consider B1, for which the binding result in assay [1] and in assay [2] was “binds” in each case.

B2: AG2-G02 IgG (antibody, V domains shown)
VH: VQLVQSGAEMKKPGASVKVSCKASGYTFSAYYIHWVRQAPGQGLEWMGRINTDSGGTNFAQQFEGRVTMTRDTSISTAYMELSSLRSDDTAVYYCARGYDFWLGSYRAGGWFDPWGQGTLVTVSS
VL: not shown
notes: copies: 2 + 2
For B2, the binding result is recorded as “binds” in assay [1] and “no binding (tested: 10 μg mL^−1)” in assay [3].
